Data from article PMC3750625.

Key:
[1] = target: K104C IN 1–105 (Moloney murine leukemia virus); test: SEC; Superdex S-200 of the BMOE-crosslinked reaction mixture of K104C IN 1–105; data not shown
[2] = target: K104C IN 1–105 (Moloney murine leukemia virus); test: cross-linking; 50 μM IN 1–105 K104C with 1 mM BMOE (8 Å) or BM(PEG)2 (14.7 Å), 50 mM Tris–HCl pH 7.0, 10 μM ZnSO4, on ice 60 min, quenched with 10 mM DTT; SDS-PAGE
[3] = target: Wild type IN 1–105, the isolated N-terminal domain (NTD) of Moloney murine leukemia virus integrase (Moloney murine leukemia virus) (UniProt P03355); test: SEC; Superdex S-200, nondenaturing, 10 mM Tris pH 7.5, 0.5 M NaCl, 1 mM DTT, 5% glycerol; BS3-crosslinked and unmodified IN 1–105 compared
[4] = target: Wild type IN 1–105, the isolated N-terminal domain (NTD) of Moloney murine leukemia virus integrase (Moloney murine leukemia virus) (UniProt P03355); test: cross-linking; 56 μM IN 1–105 with 100 μM BS3 (0 to 300 μM tested), 50 mM Hepes pH 7.8, 25°C, 35 min, stopped with 50 mM lysine pH 8.0; SDS-PAGE; monomer and dimer bands digested with trypsin or chymotrypsin and read by LC-MS/MS or MALDI-TOF/TOF

## K104C IN 1–105 (domain or fragment)
[1]
  stoichiometry N: 2
[2]
  crosslinking extent with BM(PEG)2: 70%
  crosslinking extent with BMOE: 65%
  stoichiometry N: 2

## Wild type IN 1–105, the isolated N-terminal domain (NTD) of Moloney murine leukemia virus integrase (from UniProt P03355 2-106) (domain or fragment)
[3]
  percent eluting at the position of the dimer: 95%
  stoichiometry N: 2
[4]
  percent of the protein crosslinked: 50%
  stoichiometry N: 2
